From the RNAGym collection of RNA variant scans (doi:10.7554/elife.80360)

B1: CPEB3 Ribozyme (parent)
chain: GGGGGCCACAGCAGAAGCGUUCACGUCGCGGCCCCUGUCAGAUUCUGGUGAAUCUGCGAAUUCUGCUGU

Variants of: B1
Assay: self-cleavage, relative activity (ratio to wild type); higher = more cleavage; co-transcriptional

In order of falling self-cleavage:
1. GGGGGCGACAGCAGAAGCGUUCACGUCGCCGCCCCUGUCAGAUUCUGGUGAAUCUGCGAAUUCUGCUGU [C7G G30C]  1.01
2. GGGGGCGAUAGCAGAAGCGUUCACGUCGCGGCCCCUGUCAGAUUCUGGUGAAUCUGCGAAUUCUGCUGU [C7G C9U]  0.844
3. GGGGGCGACAGCAGAAGCGUUCACGUCGCAGCCCCUGUCAGAUUCUGGUGAAUCUGCGAAUUCUGCUGU [C7G G30A]  0.791
4. GGGGGCGACAGCAGAAGCGUUCACGUCGCGGCCCCUGUCAGAUUCUUGUGAAUCUGCGAAUUCUGCUGU [C7G G47U]  0.636
5. GGGGGCGACAGCAGAAGCGUUCACGUCGCGGCCCCUGUCAGAUUCUCGUGAAUCUGCGAAUUCUGCUGU [C7G G47C]  0.604
6. GGGGGCGACAGCAGAAGCGUUCACGUCGCGGCCCCUGUCAGAUUCUGCUGAAUCUGCGAAUUCUGCUGU [C7G G48C]  0.502
7. GGGGGCGACAGUAGAAGCGUUCACGUCGCGGCCCCUGUCAGAUUCUGGUGAAUCUGCGAAUUCUGCUGU [C7G C12U]  0.383
8. GGGGGCGACAGCAGAAGCGUUCACGUCGCGGCCCCUGUCAGAUUCUGGUGAGUCUGCGAAUUCUGCUGU [C7G A52G]  0.38
9. GGGGGCGACAGCAGAAGCGUUCACGUCGCGGCUCCUGUCAGAUUCUGGUGAAUCUGCGAAUUCUGCUGU [C7G C33U]  0.253
10. GGGGGCGACAGGAGAAGCGUUCACGUCGCGGCCCCUGUCAGAUUCUGGUGAAUCUGCGAAUUCUGCUGU [C7G C12G]  0.223
11. GGGGGCGACAGCAGAAGCGUUCACGUCGCGGCCCCUGUCAGAUUCUGGUGAAUCUGCGACUUCUGCUGU [C7G A60C]  0.196
12. GGGGGCGACAGCAGAAGCGUUCACGUCGCGGCCCCUUUCAGAUUCUGGUGAAUCUGCGAAUUCUGCUGU [C7G G37U]  0.179
13. GGGGGCGACAUCAGAAGCGUUCACGUCGCGGCCCCUGUCAGAUUCUGGUGAAUCUGCGAAUUCUGCUGU [C7G G11U]  0.175
14. GGGGGCGACAGCAGAAGCGUUCACGUCGCGGCCCCUGUCAGAUUCUGGUGAAUCUGCGUAUUCUGCUGU [C7G A59U]  0.167
15. GGGGGCGACACCAGAAGCGUUCACGUCGCGGCCCCUGUCAGAUUCUGGUGAAUCUGCGAAUUCUGCUGU [C7G G11C]  0.157
16. GGGGGCGACAGCAGAAGCGUUCACGUCGCGGCCCCUAUCAGAUUCUGGUGAAUCUGCGAAUUCUGCUGU [C7G G37A]  0.153
17. GGGGGCGACAGCAGAAGCGUUCACGUCGCGGCCCCUGUCAGAUUCUGGUGAAUCUGCGCAUUCUGCUGU [C7G A59C]  0.148
18. GGGGGCGACAGCAGAAGCGUUCACGUCGCGGCCCCUGUCAGAUUCUGGUGAAUCUGAGAAUUCUGCUGU [C7G C57A]  0.146
19. GGGGGCGACAGCAGAAGCGUUCACGUCGCGGCCCCUGUCAAAUUCUGGUGAAUCUGCGAAUUCUGCUGU [C7G G41A]  0.131
20. GGGGGCGACAGCAGAAGCGUUCACGUCGCGGCCCAUGUCAGAUUCUGGUGAAUCUGCGAAUUCUGCUGU [C7G C35A]  0.13
21. GGGGGCGACAGCAGAAGCGUUCACGUCGGGGCCCCUGUCAGAUUCUGGUGAAUCUGCGAAUUCUGCUGU [C7G C29G]  0.125
22. GGGGGCGACAGCAGAAGCGUUCACGUCGCGGCCCCUGUCACAUUCUGGUGAAUCUGCGAAUUCUGCUGU [C7G G41C]  0.121
23. GGGGGCGACAGCAGAAGCGUUCACGUCGCGGCCCCUCUCAGAUUCUGGUGAAUCUGCGAAUUCUGCUGU [C7G G37C]  0.118
24. GGGGGCGACAGCAGAACCGUUCACGUCGCGGCCCCUGUCAGAUUCUGGUGAAUCUGCGAAUUCUGCUGU [C7G G17C]  0.112
25. GGGGGCGACAGCAGAAGCGUUCACGUAGCGGCCCCUGUCAGAUUCUGGUGAAUCUGCGAAUUCUGCUGU [C7G C27A]  0.11
26. GGGGGCGACAGCAGAAGCGUUCACAUCGCGGCCCCUGUCAGAUUCUGGUGAAUCUGCGAAUUCUGCUGU [C7G G25A]  0.107
27. GGGGGCGACAGCAGAAGCCUUCACGUCGCGGCCCCUGUCAGAUUCUGGUGAAUCUGCGAAUUCUGCUGU [C7G G19C]  0.106
28. GGGGGCGACAGCAGAAGCGUUCACGUCCCGGCCCCUGUCAGAUUCUGGUGAAUCUGCGAAUUCUGCUGU [C7G G28C]  0.106
29. GGGGGCGACAGCAGAAGCGUUAACGUCGCGGCCCCUGUCAGAUUCUGGUGAAUCUGCGAAUUCUGCUGU [C7G C22A]  0.104
30. GGGGGCGACAGCAGAAGCGUUCACGUCGAGGCCCCUGUCAGAUUCUGGUGAAUCUGCGAAUUCUGCUGU [C7G C29A]  0.102
31. GGGGGCGACAGCAGAAGCGUUCAAGUCGCGGCCCCUGUCAGAUUCUGGUGAAUCUGCGAAUUCUGCUGU [C7G C24A]  0.0945
32. GGGGGCGACAGCAGAAGCGUUGACGUCGCGGCCCCUGUCAGAUUCUGGUGAAUCUGCGAAUUCUGCUGU [C7G C22G]  0.0908
33. GGGGGCGACAGCAAAAGCGUUCACGUCGCGGCCCCUGUCAGAUUCUGGUGAAUCUGCGAAUUCUGCUGU [C7G G14A]  0.0844
34. GGGGGCGACAGCAGAAGCGUUCACGUCGUGGCCCCUGUCAGAUUCUGGUGAAUCUGCGAAUUCUGCUGU [C7G C29U]  0.0696
35. GGGGGCGACAGCAGAAGCGUUCACGUCGCGGACCCUGUCAGAUUCUGGUGAAUCUGCGAAUUCUGCUGU [C7G C32A]  0.0649
36. GGGGGCGACAGAAGAAGCGUUCACGUCGCGGCCCCUGUCAGAUUCUGGUGAAUCUGCGAAUUCUGCUGU [C7G C12A]  0.0557
37. GGGGGCGACAGCAGAAUCGUUCACGUCGCGGCCCCUGUCAGAUUCUGGUGAAUCUGCGAAUUCUGCUGU [C7G G17U]  0.0489
38. GGGGGCGACAGCAGAAGCGUUCACGUCACGGCCCCUGUCAGAUUCUGGUGAAUCUGCGAAUUCUGCUGU [C7G G28A]  0.0296
39. GGGGGCGACAGCAGAAGAGUUCACGUCGCGGCCCCUGUCAGAUUCUGGUGAAUCUGCGAAUUCUGCUGU [C7G C18A]  0.0277
